# According to article PMC3005147:
# Biological target: human UbcH5c, full-length (aa 1-147) (human) (UniProt P61077)
# Assay: ITC
substance,measurement,value
human E4B U-box domain (aa 1208-1302) (from UniProt O95155 1208-1302) (domain or fragment),Kd,67.1 µM
same,dH,2.9 kcal/mol
same,stoichiometry N,0.99
